Source: article PMC8307404, “Crystal Structure-Guided Design of Bisubstrate Inhibitors and Photoluminescent Probes for Protein Kinases of the PIM Family” (Molecules, 2021)
Square brackets hold non-standard residues; d marks the D form. Peptide text beside a SMILES is read from it. * marks the point of attachment. X3 = O=C(CCCCCNCc1nc2c(sc3cc(Br)cnc32)c(=O)[nH]1)*

How the values were obtained:
Test in all cases: Kinase profiling (radiometric filter-binding)
Assay type in all cases: biochemical
DAPK1 = DAPK1 (Homo sapiens, UniProt P53355); details: DAPK1, 1 µM inhibitor; read-out: Residual activity, %
Chain of DAPK1 (P53355 whole entry): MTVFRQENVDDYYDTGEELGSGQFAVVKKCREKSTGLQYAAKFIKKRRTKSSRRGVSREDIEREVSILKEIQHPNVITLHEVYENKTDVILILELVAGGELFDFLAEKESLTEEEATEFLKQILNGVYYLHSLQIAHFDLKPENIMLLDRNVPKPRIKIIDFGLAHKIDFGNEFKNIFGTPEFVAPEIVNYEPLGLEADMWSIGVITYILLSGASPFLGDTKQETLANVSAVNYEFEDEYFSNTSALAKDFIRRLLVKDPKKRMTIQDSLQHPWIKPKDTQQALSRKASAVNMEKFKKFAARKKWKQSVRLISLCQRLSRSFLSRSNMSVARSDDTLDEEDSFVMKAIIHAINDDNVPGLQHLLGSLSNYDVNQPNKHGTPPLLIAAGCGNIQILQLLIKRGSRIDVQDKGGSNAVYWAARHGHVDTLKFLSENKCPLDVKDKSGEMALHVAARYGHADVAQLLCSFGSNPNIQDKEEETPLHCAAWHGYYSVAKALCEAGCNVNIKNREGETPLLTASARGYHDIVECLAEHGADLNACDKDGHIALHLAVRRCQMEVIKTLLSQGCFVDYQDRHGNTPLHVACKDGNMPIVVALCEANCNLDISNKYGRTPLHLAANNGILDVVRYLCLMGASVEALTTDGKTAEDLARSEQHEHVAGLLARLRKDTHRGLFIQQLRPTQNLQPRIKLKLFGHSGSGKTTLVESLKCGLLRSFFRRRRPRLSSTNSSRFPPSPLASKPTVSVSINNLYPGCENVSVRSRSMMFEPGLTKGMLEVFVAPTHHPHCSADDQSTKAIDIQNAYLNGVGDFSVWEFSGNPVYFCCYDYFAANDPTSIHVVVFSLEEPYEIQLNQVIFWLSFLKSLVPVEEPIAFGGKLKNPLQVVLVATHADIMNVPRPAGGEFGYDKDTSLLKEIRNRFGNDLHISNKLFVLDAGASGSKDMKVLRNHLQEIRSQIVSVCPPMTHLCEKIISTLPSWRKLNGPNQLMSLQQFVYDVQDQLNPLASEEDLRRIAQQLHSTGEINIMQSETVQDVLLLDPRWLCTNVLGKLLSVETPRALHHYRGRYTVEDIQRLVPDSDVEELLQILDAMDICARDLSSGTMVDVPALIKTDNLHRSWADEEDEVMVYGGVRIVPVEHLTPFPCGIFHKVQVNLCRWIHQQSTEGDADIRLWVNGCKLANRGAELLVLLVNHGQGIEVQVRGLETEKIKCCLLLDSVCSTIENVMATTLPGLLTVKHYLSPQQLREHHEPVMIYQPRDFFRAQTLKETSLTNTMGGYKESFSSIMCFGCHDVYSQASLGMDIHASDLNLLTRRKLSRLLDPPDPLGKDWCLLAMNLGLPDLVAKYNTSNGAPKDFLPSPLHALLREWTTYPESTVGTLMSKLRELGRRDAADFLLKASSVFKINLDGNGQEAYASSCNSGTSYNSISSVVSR
Summary of the method: (§1)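 Residual kinase activity, as a percentage of the inhibitor-free control, was measured at 1 µM final compound by radiometric filter binding. Each human enzyme was run with ATP no higher than its own KM.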

BRK = BRK (Homo sapiens, UniProt Q13882); details: 1 µM inhibitor, read-out: Residual activity, %
Chain of BRK (Q13882 whole entry): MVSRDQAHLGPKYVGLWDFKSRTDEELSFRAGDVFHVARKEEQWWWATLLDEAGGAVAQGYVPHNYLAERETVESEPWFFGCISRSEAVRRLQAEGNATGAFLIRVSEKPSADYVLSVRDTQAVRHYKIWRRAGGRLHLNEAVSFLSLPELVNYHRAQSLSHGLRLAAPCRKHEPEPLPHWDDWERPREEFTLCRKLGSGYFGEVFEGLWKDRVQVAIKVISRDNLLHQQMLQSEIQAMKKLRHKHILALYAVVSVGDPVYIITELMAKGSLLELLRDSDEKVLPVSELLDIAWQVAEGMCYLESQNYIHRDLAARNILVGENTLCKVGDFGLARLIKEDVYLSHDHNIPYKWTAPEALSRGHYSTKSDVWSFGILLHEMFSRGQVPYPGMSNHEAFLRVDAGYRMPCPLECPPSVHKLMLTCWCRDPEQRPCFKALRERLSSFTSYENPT
Summary of the method: as §1

NUAK1 = biological target: T1, NUAK1 (Homo sapiens, UniProt O60285); details: NUAK1, 1 µM inhibitor; read-out: Residual activity, %
T1 sequence (O60285 1-661): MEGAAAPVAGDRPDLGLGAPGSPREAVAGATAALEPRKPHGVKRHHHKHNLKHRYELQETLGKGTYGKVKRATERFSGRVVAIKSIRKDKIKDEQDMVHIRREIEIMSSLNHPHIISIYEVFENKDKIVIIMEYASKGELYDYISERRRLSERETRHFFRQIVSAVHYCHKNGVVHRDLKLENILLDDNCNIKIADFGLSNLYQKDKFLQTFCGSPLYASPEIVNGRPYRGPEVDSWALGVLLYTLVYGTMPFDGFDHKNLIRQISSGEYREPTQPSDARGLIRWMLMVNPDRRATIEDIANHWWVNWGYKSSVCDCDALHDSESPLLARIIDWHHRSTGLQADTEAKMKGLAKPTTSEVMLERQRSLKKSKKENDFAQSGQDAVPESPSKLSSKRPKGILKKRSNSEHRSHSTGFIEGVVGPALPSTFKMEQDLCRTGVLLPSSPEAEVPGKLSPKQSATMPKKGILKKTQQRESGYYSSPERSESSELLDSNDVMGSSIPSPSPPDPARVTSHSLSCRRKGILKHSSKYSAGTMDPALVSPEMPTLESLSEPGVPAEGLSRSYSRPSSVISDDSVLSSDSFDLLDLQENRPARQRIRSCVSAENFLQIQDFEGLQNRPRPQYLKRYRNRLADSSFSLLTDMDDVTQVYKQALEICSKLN
Summary of the method: as §1

EPH-B2 = biological target: T2, EPH-B2 (Homo sapiens, UniProt P29323); details: EPH-B2, 1 µM inhibitor; read-out: Residual activity, %
T2 sequence (P29323 19-1055): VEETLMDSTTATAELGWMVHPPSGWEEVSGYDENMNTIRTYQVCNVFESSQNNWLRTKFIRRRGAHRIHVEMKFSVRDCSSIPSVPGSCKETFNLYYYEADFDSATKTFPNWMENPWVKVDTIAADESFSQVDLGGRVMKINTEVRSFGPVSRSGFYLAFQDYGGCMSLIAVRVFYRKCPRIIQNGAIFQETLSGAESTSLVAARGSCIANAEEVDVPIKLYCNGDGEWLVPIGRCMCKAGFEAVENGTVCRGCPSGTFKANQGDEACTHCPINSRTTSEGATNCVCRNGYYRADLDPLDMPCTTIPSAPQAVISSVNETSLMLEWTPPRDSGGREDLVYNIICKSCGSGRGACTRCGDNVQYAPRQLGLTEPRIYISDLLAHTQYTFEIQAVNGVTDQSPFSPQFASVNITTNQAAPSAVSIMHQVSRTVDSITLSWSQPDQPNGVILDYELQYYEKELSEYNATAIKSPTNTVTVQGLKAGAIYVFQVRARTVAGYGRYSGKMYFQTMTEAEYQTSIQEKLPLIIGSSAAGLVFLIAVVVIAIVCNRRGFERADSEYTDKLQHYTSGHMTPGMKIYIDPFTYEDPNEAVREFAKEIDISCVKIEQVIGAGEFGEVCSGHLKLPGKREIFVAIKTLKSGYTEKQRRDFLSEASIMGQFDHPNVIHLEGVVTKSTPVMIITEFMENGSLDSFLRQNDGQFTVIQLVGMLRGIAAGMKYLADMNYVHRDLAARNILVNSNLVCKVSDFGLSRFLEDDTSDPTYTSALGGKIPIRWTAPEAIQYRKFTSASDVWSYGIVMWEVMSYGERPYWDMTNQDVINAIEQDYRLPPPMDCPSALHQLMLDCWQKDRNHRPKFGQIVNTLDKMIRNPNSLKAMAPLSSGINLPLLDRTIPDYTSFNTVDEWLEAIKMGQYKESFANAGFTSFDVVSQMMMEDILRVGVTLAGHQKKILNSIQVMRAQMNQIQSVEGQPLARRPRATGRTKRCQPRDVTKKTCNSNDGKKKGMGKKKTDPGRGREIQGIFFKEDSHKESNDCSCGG
Summary of the method: as §1

| SMILES | remaining activity at 1 µM (DAPK1) [%] | remaining activity at 1 µM (BRK) [%] | remaining activity at 1 µM (NUAK1) [%] | remaining activity at 1 µM (EPH-B2) [%] |
| --- | --- | --- | --- | --- |
| N=C(N)NCCC[C@@H](NC(=O)CCCCCNC(=O)Cn1cnc2c(I)c(I)c(I)c(I)c21)C(=O)N[C@H](CCCNC(=N)N)C(=O)N[C@H](CCCNC(=N)N)C(=O)N[C@H](CCCNC(=N)N)C(=O)N[C@H](CCCNC(=N)N)C(=O)N[C@H](CCCNC(=N)N)C(=O)N[C@H](CCCCN)C(N)=O [ARC-3125, TIBI-CH2-C(=O)-Ahx-(D-Arg)6-D-Lys-NH2] | 18 ± 1 | 82 ± 41 | 7 ± 15 | 102 ± 8 |
| N=C(N)NCCC[C@@H](NC(=O)CCCCCNCc1nc2c(sc3cc(Br)cnc32)c(=O)[nH]1)C(=O)N[C@H](CCCNC(=N)N)C(=O)N[C@H](CCCNC(=N)N)C(=O)N[C@H](CCCNC(=N)N)C(=O)N[C@H](CCCNC(=N)N)C(=O)N[C@H](CCCNC(=N)N)C(=O)N[C@H](CCCCN)C(N)=O [ARC-3126, BPTP-Ahx-(D-Arg)6-D-Lys-NH2] (X3-[dR][dR][dR][dR][dR][dR][dK]-NH2) | 49 ± 18 | 81 ± 4 | 47 ± 7 | 107 ± 4 |
| N=C(N)NCCC[C@@H](NC(=O)CNC(=O)[C@@H](CCCNC(=N)N)NC(=O)[C@@H](CCCNC(=N)N)NC(=O)CCCCCCCNCc1nc2c(sc3cc(Br)cnc32)c(=O)[nH]1)C(=O)N[C@H](CCCCN)C(N)=O [Compound 1, BPTP-Aoc-(D-Arg)2-Gly-D-Arg-D-Lys-NH2] | 85 ± 3 | 126 ± 8 | 95 ± 14 | 95 ± 16 |
| N=C(N)NCCC[C@@H](NC(=O)CNC(=O)[C@@H](CCCNC(=N)N)NC(=O)[C@@H](CCCNC(=N)N)NC(=O)CCCCCCCNCc1nc2c(sc3ccc(Br)cc32)c(=O)[nH]1)C(=O)N[C@H](CCCCN)C(N)=O [Compound 2, BBTP-Aoc-(D-Arg)2-Gly-D-Arg-D-Lys-NH2] | 60 ± 11 | 114 ± 11 | 102 ± 14 | 100 ± 5 |
| N=C(N)NCCC[C@@H](NC(=O)CNC(=O)[C@@H](CCCNC(=N)N)NC(=O)[C@@H](CCCNC(=N)N)NC(=O)Cn1cc(CNCc2nc3c(sc4ccc(Br)cc43)c(=O)[nH]2)nn1)C(=O)N[C@H](CCCCN)C(N)=O [Compound 3, BBTP-Amt-(D-Arg)2-Gly-D-Arg-D-Lys-NH2] | 88 ± 3 | 114 ± 13 | 74 ± 6 | 96 ± 14 |
